Target: endogenous EphB1 receptor of P19 cells (teratocarcinoma-derived, pluripotent murine cells) (murine) (UniProt Q8CBF3)
Test: cell-based or functional assay

endogenous EphB1 receptor of P19 cells (teratocarcinoma-derived, pluripotent murine cells) (murine), sequence (Q8CBF3 18-984): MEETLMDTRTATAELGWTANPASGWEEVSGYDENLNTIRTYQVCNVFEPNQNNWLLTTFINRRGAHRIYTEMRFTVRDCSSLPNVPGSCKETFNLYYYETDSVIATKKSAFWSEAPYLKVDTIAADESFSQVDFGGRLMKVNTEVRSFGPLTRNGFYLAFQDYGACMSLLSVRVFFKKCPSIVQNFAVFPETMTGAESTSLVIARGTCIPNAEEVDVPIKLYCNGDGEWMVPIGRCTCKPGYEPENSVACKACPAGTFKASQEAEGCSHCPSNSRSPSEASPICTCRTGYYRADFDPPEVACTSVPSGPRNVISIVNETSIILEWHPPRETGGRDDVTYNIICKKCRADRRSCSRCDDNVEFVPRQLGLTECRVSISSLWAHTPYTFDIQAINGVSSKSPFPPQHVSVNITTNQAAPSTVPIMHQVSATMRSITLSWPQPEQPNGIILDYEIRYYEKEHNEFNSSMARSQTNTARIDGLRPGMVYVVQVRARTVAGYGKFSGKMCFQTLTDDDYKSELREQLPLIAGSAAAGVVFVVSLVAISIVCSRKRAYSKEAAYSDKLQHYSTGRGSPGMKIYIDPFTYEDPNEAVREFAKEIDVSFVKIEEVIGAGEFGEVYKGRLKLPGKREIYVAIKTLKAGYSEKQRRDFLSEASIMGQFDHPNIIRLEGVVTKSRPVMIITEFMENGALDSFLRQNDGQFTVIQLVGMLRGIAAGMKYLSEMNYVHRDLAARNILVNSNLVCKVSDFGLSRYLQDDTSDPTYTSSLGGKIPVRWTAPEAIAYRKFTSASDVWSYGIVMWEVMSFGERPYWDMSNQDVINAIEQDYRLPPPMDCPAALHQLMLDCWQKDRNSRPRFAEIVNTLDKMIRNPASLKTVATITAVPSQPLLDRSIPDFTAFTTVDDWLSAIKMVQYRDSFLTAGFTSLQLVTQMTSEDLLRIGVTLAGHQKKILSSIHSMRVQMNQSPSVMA

Question: “preclustered multimeric ephrin-B1/Fc (ephrin-B1/Fc + anti-Fc) (from UniProt P98172 28-237; P01857 99-330) (Fc fusion)” was tested. Which % attached P19 cells in wells preadsorbed with ligand and fibronectin did it give?
Answer: The % attached P19 cells in wells preadsorbed with ligand and fibronectin was 60%.
